One data set deals with whole blood. The data set can be described thus: Thrombelastography (TEG) of clot formation in recalcified whole blood. Format: biochemical, human. The note with it: for effect on TEG amplitude (strength of clot): anticoagulant alone: bivalirudin 5 μg/ml, lepirudin 1 μg/ml, argatroban 0.5 μg/ml. How it is done: (§1) For plasma collection, whole blood samples (5 ml, in 3.2% trisodium citrate) were obtained after institutional approval and informed written consent from 6 volunteers that had not received any medication in the preceding 2 weeks. For APTT and thrombin generation experiments blood was centrifuged to obtain platelet poor plasma (PPP) for 20 min at 3000×g. PPP was used immediately or stored for not more than a couple of days at −20° C. For TEG® measurements, whole blood in citrate was used after recalcification within 5 min from collection. In all experiments, the final concentration of recombinant thrombin mutant was 5 μg/ml.
The viscoelastic measurement of clot formation was evaluated using Thrombelastogarphy (TEG®, Haemoscope, Niles, Ill.). […] For TEG® measurements, 360 μl aliquots of the samples were transferred to disposable cups containing […] 0.4 M CaCl2. Effects of W215A/E217A on TEG® variables were evaluated after adding this thrombin mutant (5 μg/ml, final concentration) to respective samples. The TEG® variables, the reaction time (in minutes) which represents the onset of clot formation, and maximum amplitude (in mm) which reflects the strength of clot were compared for different groups (Kawasaki et al. (2004) Anesthesia & Analgesia, 99:1440-1444).

In another data set the test system is platelet-poor plasma. Briefly: Thrombin generation monitoring by Thrombinoscope in platelet-poor plasma. Format: biochemical, human. The settings on record: for effect on onset and peak of thrombin generation: anticoagulant alone in plasma. The method, then: Fluorogenic substrate (Z-Gly-Gly-Arg-AMC HCl, molecular weight 616.07) for thrombin generation assay was obtained from Bachem (Switzerland). HEPES (N-2-hydroxyethyl piperazine-N′-2-ethanesulfonic acid), CaCl2, BSA (bovine serum albumin) and DMSO (dimethyl sulfoxide) were from Sigma (Sigma, St Louis, Mo.). Tissue factor was dissolved in 10 ml sterile water and then further diluted with working HEPES buffer (20 mM HEPES, 140 mM NaCl, 5 mg/ml BSA), (1:75). For the preparation of Fluca-buffer 1.75 ml HEPES buffer (pH 7.35, 20 mM HEPES, 60 mg/ml BSA was added to 0.2 ml of 1 M CaCl2 in a glass test tube, mixed, and warmed up for few minutes at 37° C. Just before use 50 μl of 100 mM fluorogenic substrate made in DMSO was added to the HEPES-CaCl2 solution and mixed to dissolve. This buffer now contains 2.5 mM substrate and 100 mM CaCl2.
as §1
In order to evaluate this complex regulation of thrombin generation, the Thrombinoscope® system, which enables automated acquisition of thrombin generation time courses in platelet-rich plasma or in platelet-poor plasma (Hemker et al. (2003) Pathophysiology of Haemostasis & Thrombosis, 33:4-15). The method for the automated estimation of endogenous thrombin potential using a commercially available fluorogenic substrate (Z-GlyGly-Arg-AMC) has been described in detail elsewhere (Hemker et al. (2003) Pathophysiology of Haemostasis & Thrombosis, 33:4-15). Briefly, for the thrombin generation experiments, 80 μl of PPP, and 20 μl of the thrombin generation trigger are added to wells of 96-well microtiter plate (Microfluor2, Labsystems, Finland), followed by 20 μl of substrate-calcium chloride buffer. The reaction is monitored using microplate fluorometer (Fluoroskan Ascent, Labsystems, Finland) set at 390 nm (excitation wavelength) and 460 nm (emission wavelength). […] Additionally, heparin (0.2 or 0.5 U/ml) was also evaluated. Heparin reversal with an appropriate concentration of protamine was used for comparison (1 mg of protamine for each 100 units (1 mg) of heparin). To evaluate the effects of the thrombin mutant on protein C activation (Regnault et al. (2003) Thrombosis and Haemostasis, 89:208-212), soluble thrombomodulin (0.75 μg/ml, final concentration) was added to the sample plasma containing the thrombin mutant.

For data set [1] the following is noted: off-pump coronary surgery, cited from earlier work.
Another data set concerns the target α-thrombin (Homo sapiens, UniProt P00734). The note with it: association constant for α-thrombin and inhibitor; cited from earlier work.
The subject of data set [2] is lepirudin (Refludan, Berlex).
The test system of data set [3] is bivalirudin (Angiomax, Medicines Company).

For the compound `CC1CNc2c(cccc2S(=O)(=O)N[C@@H](CCCNC(=N)N)C(=O)N2CC[C@@H](C)C[C@@H]2C(=O)O)C1` (stereo partly drawn) [Argatroban, argatroban], the “effect on TEG amplitude (strength of clot)” value (“effect on TEG amplitude” for short) in the data set with whole blood is listed as “reduced”. The “effect on onset and peak of thrombin generation” value (from here on “effect on onset and peak”) with platelet-poor plasma was “prolonged the onset and reduced the peak”. This compound also returned a peak thrombin level in the data set with platelet-poor plasma (argatroban at 0.5 and 1 μg/ml, with W215A/E217A added (FIG. 6D)) above 100 nM.

In the case of Protamine sulfate, the “reversal of heparin on TEG (onset, clot strength)” value in the data set on whole blood (protamine sulfate 5 μg/ml, heparin 0.5 U/ml) was “restores the onset completely, and to a lesser extent clot strength”. Further, in the data set with platelet-poor plasma (heparin 0.2 U/ml, W215A/E217A 5 μg/ml or protamine sulfate 2 μg/ml), the “effect on thrombin generation in the presence of heparin” value is listed as “reversed the peak level”.

On to bivalirudin, for which, in the data set with whole blood, the “effect on TEG amplitude” value was “minimally affected”. For the same compound, the “range of blood loss” value in data set [1] (n=50) was 320-4,909 ml. For the same compound, the “12-hour post-operative chest tube drainage, median” value in data set [1] was 793 mL. In addition, the “effect on onset and peak” value in the data set on platelet-poor plasma is reported as “prolonged the onset of thrombin generation, but not the peak level”. Also, the kon in the data set with α-thrombin was 430 10^6 M^−1s^−1.

As for “catalytic-site blocked thrombin (thrombin saturated with Phe-Pro-Arg-chlormethylketone)”, the “activated partial thromboplastin time (APTT) in lepirudin-treated plasma” value in data set [2] is given as “The active site blocked thrombin (FPR-TH) had no effect on APTT prolonged with either DTIs or heparin”. In data set [3], the “activated partial thromboplastin time (APTT) in bivalirudin-treated plasma” value is “The active site blocked thrombin (FPR-TH) had no effect on APTT prolonged with either DTIs or heparin”.

For human thrombin mutant W215A/E217A, in data set [2], the “TEG reaction time and amplitude in lepirudin-treated whole blood” value is “With addition of W215A/E217A (5 µg/ml), both reaction time and amplitude variables were reversed to normal for all DTIs”; the “activated partial thromboplastin time (APTT) in lepirudin-treated plasma” value is “The addition of W215A/E217A to plasma shifted APTT values toward normal ranges”; the “onset (latency) of thrombin generation, Thrombinoscope, lepirudin-treated plasma” value is given as “W215A/E217A was effective in shortening prolonged latency of thrombin generation”. Besides, in data set [3], the “TEG reaction time and amplitude in bivalirudin-treated whole blood” value is “With addition of W215A/E217A (5 µg/ml), both reaction time and amplitude variables were reversed to normal for all DTIs”; the “activated partial thromboplastin time (APTT) in bivalirudin-treated plasma” value is recorded as “The addition of W215A/E217A to plasma shifted APTT values toward normal ranges”; the “onset (latency) of thrombin generation, Thrombinoscope, bivalirudin-treated plasma” value was “W215A/E217A was effective in shortening prolonged latency of thrombin generation”.

As for lepirudin, the “effect on TEG amplitude” value with whole blood is “minimally affected”. Also, in the data set on platelet-poor plasma, the “effect on onset and peak” value is given as “prolonged the onset of thrombin generation, but not the peak level”. In addition, the kon on α-thrombin was 290 10^6 M^−1s^−1.

The values are drawn from US20100158890A1, “USE OF THROMBIN MUTANTS TO INHIBIT THE ANTICOAGULATION EFFECT OF THROMBIN INHIBITORS” (priority 2006, published 2010).
